Paper PMC3382138, “On the Structure and Function of the Phytoene Desaturase CRTI from Pantoea ananatis, a Membrane-Peripheral and FAD-Dependent Oxidase/Isomerase” (PLoS ONE, 2012)

Key:
[1] = system: Cc1cc2nc3c(=O)[nH]c(=O)nc-3n(C[C@H](O)[C@H](O)[C@H](O)COP(=O)(O)OP(=O)(O)OC[C@H]3O[C@@H](n4cnc5c(N)ncnc54)[C@H](O)[C@@H]3O)c2cc1C; assay: purified protein; details: phytoene 7 µM (7.5 µM in Figure 4 legend) in phosphatidyl-choline liposomes, aerobic, phosphate pH 8.0, 100 mM NaCl, 37 °C, 12 min, varied: cofactor
[2] = system: CC(C)=CCC/C(C)=C/CC/C(C)=C/CC/C(C)=C/C=C\C=C(/C)CC/C=C(\C)CC/C=C(\C)CCC=C(C)C; assay: purified protein; details: 150 µM FAD, phytoene 0.8-9.2 µM (apparent bulk concentration) in phosphatidyl-choline liposomes, aerobic, phosphate pH 8.0, 100 mM NaCl, 37 °C, 12 min, not saturated

**Q.** How did the Km [1] turn out when CRTI (CRTI-His6) (Pantoea ananatis) was run?
**A.** 50.5 ± 2.9 µM

**Q.** What about the Km [2] of the same substance?
**A.** 16.7 ± 1.9 µM
